Assay results from US20220017591A1 (AstraZeneca / MedImmune, published 2022).

T1: human RXFP1 (human, UniProt Q9HBX9 1-757)
T1 sequence (looked up): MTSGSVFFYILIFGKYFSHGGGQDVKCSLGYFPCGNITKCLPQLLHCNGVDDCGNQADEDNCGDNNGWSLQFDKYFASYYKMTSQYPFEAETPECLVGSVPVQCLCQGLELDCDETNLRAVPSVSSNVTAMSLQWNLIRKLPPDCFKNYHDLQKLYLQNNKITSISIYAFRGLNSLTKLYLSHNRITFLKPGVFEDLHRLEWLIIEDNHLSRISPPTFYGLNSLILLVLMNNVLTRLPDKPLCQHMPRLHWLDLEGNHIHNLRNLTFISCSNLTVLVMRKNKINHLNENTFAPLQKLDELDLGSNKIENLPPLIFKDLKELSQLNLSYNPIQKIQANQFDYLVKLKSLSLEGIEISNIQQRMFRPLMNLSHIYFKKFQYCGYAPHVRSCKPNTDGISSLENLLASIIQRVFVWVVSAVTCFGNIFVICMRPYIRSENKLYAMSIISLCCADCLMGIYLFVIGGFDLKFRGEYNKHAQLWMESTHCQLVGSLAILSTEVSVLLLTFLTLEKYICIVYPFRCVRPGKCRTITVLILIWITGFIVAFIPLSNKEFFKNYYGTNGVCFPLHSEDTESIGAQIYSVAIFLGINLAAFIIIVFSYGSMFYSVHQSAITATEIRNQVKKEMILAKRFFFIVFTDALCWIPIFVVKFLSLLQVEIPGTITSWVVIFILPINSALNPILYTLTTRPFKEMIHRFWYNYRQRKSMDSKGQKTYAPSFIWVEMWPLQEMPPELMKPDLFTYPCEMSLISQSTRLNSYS

T2: mouse RXFP1 (mouse, UniProt Q6R6I7 1-758)
T2 sequence (looked up): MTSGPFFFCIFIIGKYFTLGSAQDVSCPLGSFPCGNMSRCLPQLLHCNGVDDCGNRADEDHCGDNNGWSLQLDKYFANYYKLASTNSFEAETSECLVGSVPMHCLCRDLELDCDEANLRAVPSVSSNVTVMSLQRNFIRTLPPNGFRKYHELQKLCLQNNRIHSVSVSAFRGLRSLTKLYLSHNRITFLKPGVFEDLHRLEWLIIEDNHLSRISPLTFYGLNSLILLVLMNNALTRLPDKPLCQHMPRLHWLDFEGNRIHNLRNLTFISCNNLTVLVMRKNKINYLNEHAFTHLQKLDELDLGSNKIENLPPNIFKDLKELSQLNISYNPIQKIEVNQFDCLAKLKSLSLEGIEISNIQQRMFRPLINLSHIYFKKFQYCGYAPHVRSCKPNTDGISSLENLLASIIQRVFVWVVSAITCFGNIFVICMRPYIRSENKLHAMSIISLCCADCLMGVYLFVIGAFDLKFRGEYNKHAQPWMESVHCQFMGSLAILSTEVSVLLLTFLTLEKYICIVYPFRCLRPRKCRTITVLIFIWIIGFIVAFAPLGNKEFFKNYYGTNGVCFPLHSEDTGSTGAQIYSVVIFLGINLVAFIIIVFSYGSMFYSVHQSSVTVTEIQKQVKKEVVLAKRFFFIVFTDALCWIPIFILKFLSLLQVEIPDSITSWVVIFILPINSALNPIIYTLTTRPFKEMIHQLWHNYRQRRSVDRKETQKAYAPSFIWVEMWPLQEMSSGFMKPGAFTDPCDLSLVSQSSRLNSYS


Key:
Test in all cases: cell-based or functional assay
human RXFP1 = target: T1, human RXFP1
mouse RXFP1 = target: T2, mouse RXFP1
human RXFP2 = human RXFP2 (human, UniProt Q8WXD0 1-754)
human RXFP2, sequence (Q8WXD0 whole entry): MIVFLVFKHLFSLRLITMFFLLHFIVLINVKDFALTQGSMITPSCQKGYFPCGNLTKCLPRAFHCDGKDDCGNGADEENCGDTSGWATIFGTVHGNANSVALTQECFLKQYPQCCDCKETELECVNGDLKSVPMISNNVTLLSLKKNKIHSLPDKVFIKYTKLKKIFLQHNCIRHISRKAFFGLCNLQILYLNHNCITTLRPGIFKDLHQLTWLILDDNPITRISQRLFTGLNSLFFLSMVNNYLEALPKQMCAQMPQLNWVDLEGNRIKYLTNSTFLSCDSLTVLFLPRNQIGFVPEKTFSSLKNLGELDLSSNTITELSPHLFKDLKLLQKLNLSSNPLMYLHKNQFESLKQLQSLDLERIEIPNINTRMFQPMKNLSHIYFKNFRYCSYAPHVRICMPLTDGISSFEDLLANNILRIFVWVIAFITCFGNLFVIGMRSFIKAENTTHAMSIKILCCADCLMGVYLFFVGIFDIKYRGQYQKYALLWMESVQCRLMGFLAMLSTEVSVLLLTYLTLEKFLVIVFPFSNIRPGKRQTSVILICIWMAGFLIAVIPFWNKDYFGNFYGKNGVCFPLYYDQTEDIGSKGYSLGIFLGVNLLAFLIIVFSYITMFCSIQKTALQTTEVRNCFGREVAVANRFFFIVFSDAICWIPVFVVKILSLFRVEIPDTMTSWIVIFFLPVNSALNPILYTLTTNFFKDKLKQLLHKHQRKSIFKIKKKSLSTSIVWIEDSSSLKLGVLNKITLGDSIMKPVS

| Binder | EC50 hRXFP1 (M), cAMP assay (human RXFP1) [M] | EC50 mRXFP1 (M), cAMP assay (mouse RXFP1) [M] | EC50 hRXFP2 (M), cAMP assay (human RXFP2) [M] |
| --- | --- | --- | --- |
| RELAX0084 (Fc fusion) chain 1: DKTHTCPPCPAPEFEGGPSVFLFPPKPKDTLMISRTPEVTCVVVDVSHEDPEVKFNWYVDGVEVHNAKTKPREEQYNSTYRVVSVLTVLHQDWLNGKEYKCKVSNKALPASIEKTISKAKGQPREPQVYTLPPCREEMTKNQVSLWCLVKGFYPSDIAVEWESNGQPENNYKTTPPVLDSDGSFFLYSKLTVDKSRWQQGNVFSCSVMHEALHNHYTQKSLSLSPGAPAPAPAPAPAPAPAPAPAGSQLYSALANKCCHVGCTKRSLARFC chain 2: DKTHTCPPCPAPEFEGGPSVFLFPPKPKDTLMISRTPEVTCVVVDVSHEDPEVKFNWYVDGVEVHNAKTKPREEQYNSTYRVVSVLTVLHQDWLNGKEYKCKVSNKALPASIEKTISKAKGQPREPQVCTLPPSREEMTKNQVSLSCAVKGFYPSDIAVEWESNGQPENNYKTTPPVLDSDGSFFLVSKLTVDKSRWQQGNVFSCSVMHEALHNHYTQKSLSLSPGGGGGSGGGGSGGGGSGGGGGSSWMEEVIKLCGRELVRAQIAICGMSTWS | 5.34e-11 | 3.48e-11 | 1.2e-08 |
| RELAX0085 (Fc fusion) chain 1: DKTHTCPPCPAPEFEGGPSVFLFPPKPKDTLMISRTPEVTCVVVDVSHEDPEVKFNWYVDGVEVHNAKTKPREEQYNSTYRVVSVLTVLHQDWLNGKEYKCKVSNKALPASIEKTISKAKGQPREPQVYTLPPCREEMTKNQVSLWCLVKGFYPSDIAVEWESNGQPENNYKTTPPVLDSDGSFFLYSKLTVDKSRWQQGNVFSCSVMHEALHNHYTQKSLSLSPGGGGGSGGGGSGGGGSGGGGGSQLYSALANKCCHVGCTKRSLARFC chain 2: DKTHTCPPCPAPEFEGGPSVFLFPPKPKDTLMISRTPEVTCVVVDVSHEDPEVKFNWYVDGVEVHNAKTKPREEQYNSTYRVVSVLTVLHQDWLNGKEYKCKVSNKALPASIEKTISKAKGQPREPQVCTLPPSREEMTKNQVSLSCAVKGFYPSDIAVEWESNGQPENNYKTTPPVLDSDGSFFLVSKLTVDKSRWQQGNVFSCSVMHEALHNHYTQKSLSLSPGAPAPAPAPAPAPAPAPAPAGSSWMEEVIKLCGRELVRAQIAICGMSTWS | 6.37e-11 | 3.09e-11 | 4.67e-08 |
| RELAX0086 (Fc fusion) chain 1: DKTHTCPPCPAPEFEGGPSVFLFPPKPKDTLMISRTPEVTCVVVDVSHEDPEVKFNWYVDGVEVHNAKTKPREEQYNSTYRVVSVLTVLHQDWLNGKEYKCKVSNKALPASIEKTISKAKGQPREPQVYTLPPCREEMTKNQVSLWCLVKGFYPSDIAVEWESNGQPENNYKTTPPVLDSDGSFFLYSKLTVDKSRWQQGNVFSCSVMHEALHNHYTQKSLSLSPGGGGGSGGGGSGGGGGSQLYSALANKCCHVGCTKRSLARFC chain 2: DKTHTCPPCPAPEFEGGPSVFLFPPKPKDTLMISRTPEVTCVVVDVSHEDPEVKFNWYVDGVEVHNAKTKPREEQYNSTYRVVSVLTVLHQDWLNGKEYKCKVSNKALPASIEKTISKAKGQPREPQVCTLPPSREEMTKNQVSLSCAVKGFYPSDIAVEWESNGQPENNYKTTPPVLDSDGSFFLVSKLTVDKSRWQQGNVFSCSVMHEALHNHYTQKSLSLSPGGGGGSGGGGSGGGGSGGGGGSSWMEEVIKLCGRELVRAQIAICGMSTWS | 4.49e-11 | 2.68e-11 | 4.88e-08 |
| RELAX0087 (Fc fusion) chain 1: DKTHTCPPCPAPEFEGGPSVFLFPPKPKDTLMISRTPEVTCVVVDVSHEDPEVKFNWYVDGVEVHNAKTKPREEQYNSTYRVVSVLTVLHQDWLNGKEYKCKVSNKALPASIEKTISKAKGQPREPQVYTLPPCREEMTKNQVSLWCLVKGFYPSDIAVEWESNGQPENNYKTTPPVLDSDGSFFLYSKLTVDKSRWQQGNVFSCSVMHEALHNHYTQKSLSLSPGGGGGSGGGGSGGGGSGGGGGSQLYSALANKCCHVGCTKRSLARFC chain 2: DKTHTCPPCPAPEFEGGPSVFLFPPKPKDTLMISRTPEVTCVVVDVSHEDPEVKFNWYVDGVEVHNAKTKPREEQYNSTYRVVSVLTVLHQDWLNGKEYKCKVSNKALPASIEKTISKAKGQPREPQVCTLPPSREEMTKNQVSLSCAVKGFYPSDIAVEWESNGQPENNYKTTPPVLDSDGSFFLVSKLTVDKSRWQQGNVFSCSVMHEALHNHYTQKSLSLSPGGGGGSGGGGSGGGGGSSWMEEVIKLCGRELVRAQIAICGMSTWS | 4.89e-11 | 3.48e-11 | 3.63e-08 |
| RELAX0105 (Fc fusion) chain 1: DKTHTCPPCPAPEFEGGPSVFLFPPKPKDTLMISRTPEVTCVVVDVSHEDPEVKFNWYVDGVEVHNAKTKPREEQYNSTYRVVSVLTVLHQDWLNGKEYKCKVSNKALPASIEKTISKAKGQPREPQVYTLPPCREEMTKNQVSLWCLVKGFYPSDIAVEWESNGQPENNYKTTPPVLDSDGSFFLYSKLTVDKSRWQQGNVFSCSVMHEALHNHYTQKSLSLSPGGGGGSGGGGSGGGGGSQLYSALANKCCHVGCTKRSLARFC chain 2: DKTHTCPPCPAPEFEGGPSVFLFPPKPKDTLMISRTPEVTCVVVDVSHEDPEVKFNWYVDGVEVHNAKTKPREEQYNSTYRVVSVLTVLHQDWLNGKEYKCKVSNKALPASIEKTISKAKGQPREPQVCTLPPSREEMTKNQVSLSCAVKGFYPSDIAVEWESNGQPENNYKTTPPVLDSDGSFFLVSKLTVDKSRWQQGNVFSCSVMHEALHNHYTQKSLSLSPGAPAPAPAPAPAPAPAPAPAGSSWMEEVIKLCGRELVRAQIAICGMSTWS | 7.12e-11 | 1.49e-11 | 3.33e-08 |
| RELAX0106 (Fc fusion) chain 1: DKTHTCPPCPAPEFEGGPSVFLFPPKPKDTLMISRTPEVTCVVVDVSHEDPEVKFNWYVDGVEVHNAKTKPREEQYNSTYRVVSVLTVLHQDWLNGKEYKCKVSNKALPASIEKTISKAKGQPREPQVYTLPPCREEMTKNQVSLWCLVKGFYPSDIAVEWESNGQPENNYKTTPPVLDSDGSFFLYSKLTVDKSRWQQGNVFSCSVMHEALHNHYTQKSLSLSPGGGGGSGGGGGSQLYSALANKCCHVGCTKRSLARFC chain 2: DKTHTCPPCPAPEFEGGPSVFLFPPKPKDTLMISRTPEVTCVVVDVSHEDPEVKFNWYVDGVEVHNAKTKPREEQYNSTYRVVSVLTVLHQDWLNGKEYKCKVSNKALPASIEKTISKAKGQPREPQVCTLPPSREEMTKNQVSLSCAVKGFYPSDIAVEWESNGQPENNYKTTPPVLDSDGSFFLVSKLTVDKSRWQQGNVFSCSVMHEALHNHYTQKSLSLSPGAPAPAPAPAPAPAPAPAPAGSSWMEEVIKLCGRELVRAQIAICGMSTWS | 6.96e-11 | 1.98e-11 | 4.94e-08 |
| RELAX0107 (Fc fusion) chain 1: DKTHTCPPCPAPEFEGGPSVFLFPPKPKDTLMISRTPEVTCVVVDVSHEDPEVKFNWYVDGVEVHNAKTKPREEQYNSTYRVVSVLTVLHQDWLNGKEYKCKVSNKALPASIEKTISKAKGQPREPQVYTLPPCREEMTKNQVSLWCLVKGFYPSDIAVEWESNGQPENNYKTTPPVLDSDGSFFLYSKLTVDKSRWQQGNVFSCSVMHEALHNHYTQKSLSLSPGGGGGGSQLYSALANKCCHVGCTKRSLARFC chain 2: DKTHTCPPCPAPEFEGGPSVFLFPPKPKDTLMISRTPEVTCVVVDVSHEDPEVKFNWYVDGVEVHNAKTKPREEQYNSTYRVVSVLTVLHQDWLNGKEYKCKVSNKALPASIEKTISKAKGQPREPQVCTLPPSREEMTKNQVSLSCAVKGFYPSDIAVEWESNGQPENNYKTTPPVLDSDGSFFLVSKLTVDKSRWQQGNVFSCSVMHEALHNHYTQKSLSLSPGAPAPAPAPAPAPAPAPAPAGSSWMEEVIKLCGRELVRAQIAICGMSTWS | 8.09e-11 | 3.87e-11 | 1.22e-07 |
